These results are taken from PMC11189300.

B1: KNL1 residues 2,026–2,342 [human] / Mis12 complex full length: MIS12, PMF1, NSL1, DSN1 [human] (parent)
chain 1: SAQNEREKLQIKIDEMDKILKKIDNCLTEMETETKNLEDEEKNNPVEEWDSEMRAAEKELEQLKTEEEELQRNLLELEVQKEQTLAQIDFMQKQRNRTEELLDQLSLSEWDVVEWSDDQAVFTFVYDTIQLTITFEESVVGFPFLDKRYRKIVDVNFQSLLDEDQAPPSSLLVHKLIFQYVEEKESWKKTCTTQHQLPKMLEEFSLVVHHCRLLGEEIEYLKRWGPNYNLMNIDINNNELRLLFSSSAAFAKFEITLFLSAYYPSVPLPSTIQNHVGNTSQDDIATILSKVPLENNYLKNVVKQIYQDLFQDCHFYH
chain 2: MSVDPMTYEAQFFGFTPQTCMLRIYIAFQDYLFEVMQAVEQVILKKLDGIPDCDISPVQIRKCTEKFLCFMKGHFDNLFSKMEQLFLQLILRIPSNILLPEDKCKETPYSEEDFQHLQKEIEQLQEKYKTELCTKQALLAELEEQKIVQAKLKQTLTFFDELHNVGRDHGTSDFRESLVSLVQNSRKLQNIRDNVEKESKRLKIS
chain 3: MAEASSANLGSGCEEKRHEGSSSESVPPGTTISRVKLLDTMVDTFLQKLVAAGSYQRFTDCYKCFYQLQPAMTQQIYDKFIAQLQTSIREEISDIKEEGNLEAVLNALDKIVEEGKVRKEPAWRPSGIPEKDLHSVMAPYFLQQRDTLRRHVQKQEAENQQLADAVLAGRRQVEELQLQVQAQQQAWQALHREQRELVAVLREPE
chain 4: MAGSPELVVLDPPWDKELAAGTESQALVSATPREDFRVRCTSKRAVTEMLQLCGRFVQKLGDALPEEIREPALRDAQWTFESAVQENISINGQAWQEASDNCFMDSDIKVLEDQFDEIIVDIATKRKQYPRKILECVIKTIKAKQEILKQYHPVVHPLDLKYDPDPAPHMENLKCRGETVAKEISEAMKSLPALIEQGEGFSQVLRMQPVIHLQRIHQEVFSSCHRKPDAKPENFITQIETTPTETASRKTSDMVLKRKQTKDCPQRKWYPLRPKKINLDT
chain 5: MTSVTRSEIIDEKGPVMSKTHDHQLESSLSPVEVFAKTSASLEMNQGVSEERIHLGSSPKKGGNCDLSHQERLQSKSLHLSPQEQSASYQDRRQSWRRASMKETNRRKSLHPIHQGITELSRSISVDLAESKRLGCLLLSSFQFSIQKLEPFLRDTKGFSLESFRAKASSLSEELKHFADGLETDGTLQKCFEDSNGKASDFSLEASVAEMKEYITKFSLERQTWDQLLLHYQQEAKEILSRGSTEAKITEVKVEPMTYLGSSQNEVLNTKPDYQKILQNQSKVFDCMELVMDELQGSVKQLQAFMDESTQCFQKVSVQLGKRSMQQLDPSPARKLLKLQLQNPPAIHGSGSGSCQ

The first experiment covers variants of B1. Put plainly: ITC. The following applies: with Mis12 complex (Mis12C), syringe KNL1^M1, cell Mis12C^WT.
Regarding chain 1 SAQNEREKLQIKIDEMDKILKKIDNCLTEMETETKNLEDEEKNNPVEEWDSEMRAAEKELEQLKTEEEELQRNLLELEVQKEQTLAQIDFMQKQRNRTEELLDQLSLSEWDVVEWSDDQAVFTFVYDTIQLTITFEESVVGFPFLDKRYRKIVDVNFQSLLDEDQAPPSSLLVHKLIFQYVEEKESWKKTCTTQHQLPKMLEEFSLVVHHCRLLGEEIEYLKRWGPNYNLANIDINNNELRLLFSSWAAAAAFEITLFLSAYYPSVPLPSTIQNHVGNTSQDDIATILSKVPLENNYLKNVVKQIYQDLFQDCHFYH [chain 1 M231A S247W F250A K252A], the screen value was 1.2.

Still in this experiment, the particulars now being: with Mis12 complex (Mis12C), syringe KNL1^M1, cell Mis12C^WT, parent: -12.
For the variant chain 1 SAQNEREKLQIKIDEMDKILKKIDNCLTEMETETKNLEDEEKNNPVEEWDSEMRAAEKELEQLKTEEEELQRNLLELEVQKEQTLAQIDFMQKQRNRTEELLDQLSLSEWDVVEWSDDQAVFTFVYDTIQLTITFEESVVGFPFLDKRYRKIVDVNFQSLLDEDQAPPSSLLVHKLIFQYVEEKESWKKTCTTQHQLPKMLEEFSLVVHHCRLLGEEIEYLKRWGPNYNLANIDINNNELRLLFSSWAAAAAFEITLFLSAYYPSVPLPSTIQNHVGNTSQDDIATILSKVPLENNYLKNVVKQIYQDLFQDCHFYH [chain 1 M231A S247W F250A K252A], the dG is -9.35.

Still in this experiment, the particulars now being: with Mis12 complex (Mis12C), syringe KNL1^M2, cell Mis12C^WT.
Turning to chain 1 SAQNEREKLQIKIDEMDKILKKIDNCLTEMETETKNLEDEEKNNPVEEWDSEMRAAEKELEQLKTEEEELQRNLLELEVQKEQTLAQIDFMQKQRNRTEELLDQLSLSEWDVVEWSDDQAVFTFVYDTIQLTITFEESVVGFPFLDKRYRKIVDVNFQSLLDEDQAPPSSLLVHKLIFQYVEEKESWKKTCTTQHQLPKMLEEFSLVVHHCRLLGEEIEYLKRWGPNYNLANIDINNNELRLLFSSWAAAAEFEITLFLSAYYPSVPLPSTIQNHVGNTSQDDIATILSKVPLENNYLKNVVKQIYQDLFQDCHFYH [chain 1 M231A S247W F250A K252E], the screen value is -16.1.

The same experiment, now with this note: with Mis12 complex (Mis12C), syringe KNL1^M2, cell Mis12C^WT, parent: -12.
In the case of chain 1 SAQNEREKLQIKIDEMDKILKKIDNCLTEMETETKNLEDEEKNNPVEEWDSEMRAAEKELEQLKTEEEELQRNLLELEVQKEQTLAQIDFMQKQRNRTEELLDQLSLSEWDVVEWSDDQAVFTFVYDTIQLTITFEESVVGFPFLDKRYRKIVDVNFQSLLDEDQAPPSSLLVHKLIFQYVEEKESWKKTCTTQHQLPKMLEEFSLVVHHCRLLGEEIEYLKRWGPNYNLANIDINNNELRLLFSSWAAAAEFEITLFLSAYYPSVPLPSTIQNHVGNTSQDDIATILSKVPLENNYLKNVVKQIYQDLFQDCHFYH [chain 1 M231A S247W F250A K252E], the dG was -9.5.

Staying with this experiment, now noted: with KNL1 residues 2,026–2,342 [human]; syringe KNL1^WT; cell Mis12C^M2.
With chain 3 MAEASSANLGSGCEEKRHEGSSSESVPPGTTISRVKLLDTMVDTFLQKLVAAGSYQRFTDCYKCFYQLQPAMTQQIYDKFIAQLQTSIREEISDIKEEGNLEAVLNALDKIVEEGKVRKEPAWRPSGIPEKDLHSVMAPYFLQQRDTLRRHVQKQEAENQQLADAVLAGRRQVEELQLQVQAQQQAWQALHREQEELLAVLREPE chain 5 MTSVTRSEIIDEKGPVMSKTHDHQLESSLSPVEVFAKTSASLEMNQGVSEERIHLGSSPKKGGNCDLSHQERLQSKSLHLSPQEQSASYQDRRQSWRRASMKETNRRKSLHPIHQGITELSRSISVDLAESKRLGCLLLSSFQFSIQKLEPFLRDTKGFSLESFRAKASSLSEELKHFADGLETDGTLQKCFEDSNGKASDFSLEASVAEMKEYITKFSLERQTWDQLLLHYQQEAKEILSRGSTEAKITEVKVEPMTYLGSSQNEVLNTKPDYQKILQNQSKVFDCMEFVMDELQGSVKQLQAFMDESTQCFQKVSVQLGKRSMQQLDPSPARKLLKLQLQNPPAIHGSGSGSCQ [chain 3 R195E V198L, chain 5 L290F], the screen value is -14.3.

Still in this experiment, the particulars now being: with KNL1 residues 2,026–2,342 [human]; syringe KNL1^WT; cell Mis12C^M2; parent: -12.
Consider chain 3 MAEASSANLGSGCEEKRHEGSSSESVPPGTTISRVKLLDTMVDTFLQKLVAAGSYQRFTDCYKCFYQLQPAMTQQIYDKFIAQLQTSIREEISDIKEEGNLEAVLNALDKIVEEGKVRKEPAWRPSGIPEKDLHSVMAPYFLQQRDTLRRHVQKQEAENQQLADAVLAGRRQVEELQLQVQAQQQAWQALHREQEELLAVLREPE chain 5 MTSVTRSEIIDEKGPVMSKTHDHQLESSLSPVEVFAKTSASLEMNQGVSEERIHLGSSPKKGGNCDLSHQERLQSKSLHLSPQEQSASYQDRRQSWRRASMKETNRRKSLHPIHQGITELSRSISVDLAESKRLGCLLLSSFQFSIQKLEPFLRDTKGFSLESFRAKASSLSEELKHFADGLETDGTLQKCFEDSNGKASDFSLEASVAEMKEYITKFSLERQTWDQLLLHYQQEAKEILSRGSTEAKITEVKVEPMTYLGSSQNEVLNTKPDYQKILQNQSKVFDCMEFVMDELQGSVKQLQAFMDESTQCFQKVSVQLGKRSMQQLDPSPARKLLKLQLQNPPAIHGSGSGSCQ [chain 3 R195E V198L, chain 5 L290F], for which the dG was -10.4.

The same experiment, now with this note: with KNL1 residues 2,026–2,342 [human]; syringe KNL1^WT; cell Mis12C^M1.
Turning to chain 3 MAEASSANLGSGCEEKRHEGSSSESVPPGTTISRVKLLDTMVDTFLQKLVAAGSYQRFTDCYKCFYQLQPAMTQQIYDKFIAQLQTSIREEISDIKEEGNLEAVLNALDKIVEEGKVRKEPAWRPSGIPEKDLHSVMAPYFLQQRDTLRRHVQKQEAENQQLADAVLAGRRQVEELQLQVQAQQQAWQALHREQAELLAVLREPE chain 5 MTSVTRSEIIDEKGPVMSKTHDHQLESSLSPVEVFAKTSASLEMNQGVSEERIHLGSSPKKGGNCDLSHQERLQSKSLHLSPQEQSASYQDRRQSWRRASMKETNRRKSLHPIHQGITELSRSISVDLAESKRLGCLLLSSFQFSIQKLEPFLRDTKGFSLESFRAKASSLSEELKHFADGLETDGTLQKCFEDSNGKASDFSLEASVAEMKEYITKFSLERQTWDQLLLHYQQEAKEILSRGSTEAKITEVKVEPMTYLGSSQNEVLNTKPDYQKILQNQSKVFDCMEFVMDELQGSVKQLQAFMDESTQCFQKVSVQLGKRSMQQLDPSPARKLLKLQLQNPPAIHGSGSGSCQ [chain 3 R195A V198L, chain 5 L290F], the screen value worked out at 5.83.
